We go through one protein from paper PMC6200863, “Hydrogen Peroxide-Based Fluorometric Assay for Real-Time Monitoring of SAM-Dependent Methyltransferases” (Frontiers in Bioengineering and Biotechnology, 2018).

Substrate in the data set: O=C(O)c1ccccc1O
Description: Mtn/XOD/HRP-coupled Amplex Red fluorescence, initial rates, non-linear regression. The data set is classed as biochemical, Clarkia breweri. The conditions noted are these: 0.5 mM SAM, 5 mM MgCl2, 1 mM KCl, pH 7.5, 30°C, coupling enzymes possibly rate-limiting.

B1: SA MTase (salicylic acid methyltransferase) (Clarkia breweri) (protein)
chain: MDVRQVLHMKGGAGENSYAMNSFIQRQVISITKPITEAAITALYSGDTVTTRLAIADLGCSSGPNALFAVTELIKTVEELRKKMGRENSPEYQIFLNDLPGNDFNAIFRSLPIENDVDGVCFINGVPGSFYGRLFPRNTLHFIHSSYSLMWLSQVPIGIESNKGNIYMANTCPQSVLNAYYKQFQEDHALFLRCRAQEVVPGGRMVLTILGRRSEDRASTECCLIWQLLAMALNQMVSEGLIEEEKMDKFNIPQYTPSPTEVEAEILKEGSFLIDHIEASEIYWSSCTKDGDGGGSVEEEGYNVARCMRAVAEPLLLDHFGEAIIEDVFHRYKLLIIERMSKEKTKFINVIVSLIRKSD
Take B1: the Km is 6.8 (±1.0) μM and the kcat is 0.98 (±0.3) min^-1.
